The record followed here is IntAct's records for PubMed 15205937.

The labels stand for the following.
B1: Cysteine and glycine-rich protein 3 (Homo sapiens), P50461 (parent)
chain: MPNWGGGAKCGACEKTVYHAEEIQCNGRSFHKTCFHCMACRKALDSTTVAAHESEIYCKVCYGRRYGPKGIGYGQGAGCLSTDTGEHLGLQFQQSPKPARSVTTSNPSKFTAKFGESEKCPRCGKSVYAAEKVMGGGKPWHKTCFRCAICGKSLESTNVTDKDGELYCKVCYAKNFGPTGIGFGGLTQQVEKKE

Variants of B1 are the subject of one test. The following applies: with nrap_human NRAP.
With C58G, the “effect of a mutation on the interaction” value is reported as “disrupting interaction”.

A further test covers variants of B1. The conditions noted are these: with nrap_human NRAP. The source holds these as a separate data set.
Turning to C58G, the “effect of a mutation on the interaction” value is “decreasing interaction”.

The variants in another test derive from B1. The following applies: with actn2_human ACTN2, P35609.
Sequence of actn2_human ACTN2, P35609 (P35609 whole entry): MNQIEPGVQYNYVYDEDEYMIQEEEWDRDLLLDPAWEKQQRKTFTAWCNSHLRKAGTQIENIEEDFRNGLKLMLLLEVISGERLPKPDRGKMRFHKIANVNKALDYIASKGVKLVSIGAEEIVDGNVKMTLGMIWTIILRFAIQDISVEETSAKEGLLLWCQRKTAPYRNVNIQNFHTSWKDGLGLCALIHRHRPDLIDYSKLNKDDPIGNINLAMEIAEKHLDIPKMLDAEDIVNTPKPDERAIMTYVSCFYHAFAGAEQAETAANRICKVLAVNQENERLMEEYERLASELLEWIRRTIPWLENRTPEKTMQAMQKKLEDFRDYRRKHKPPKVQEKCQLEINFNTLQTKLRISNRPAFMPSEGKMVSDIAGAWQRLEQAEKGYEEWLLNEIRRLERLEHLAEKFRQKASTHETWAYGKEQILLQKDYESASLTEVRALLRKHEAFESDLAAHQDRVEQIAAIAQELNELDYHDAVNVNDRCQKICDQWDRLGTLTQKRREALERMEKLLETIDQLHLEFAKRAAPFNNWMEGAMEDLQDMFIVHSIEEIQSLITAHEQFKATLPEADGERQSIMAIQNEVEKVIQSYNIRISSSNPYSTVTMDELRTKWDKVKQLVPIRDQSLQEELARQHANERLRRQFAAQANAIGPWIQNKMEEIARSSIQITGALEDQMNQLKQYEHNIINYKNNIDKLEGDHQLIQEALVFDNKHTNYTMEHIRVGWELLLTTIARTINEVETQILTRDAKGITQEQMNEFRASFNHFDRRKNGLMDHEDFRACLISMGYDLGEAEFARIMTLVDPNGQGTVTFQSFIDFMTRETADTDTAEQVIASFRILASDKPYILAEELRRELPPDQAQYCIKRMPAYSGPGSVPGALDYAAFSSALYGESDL
On to C58G, for which the “effect of a mutation on the interaction” value was “decreasing interaction”.
